From ChEMBL document CHEMBL1275443, “Functional diversity among metallo-beta-lactamases: characterization of the CAR-1 enzyme of Erwinia carotovora” (2008) come the findings set out here.

Substrate in data set [1]: CC(C)(O/N=C(\C(=O)N[C@@H]1C(=O)N2C(C(=O)[O-])=C(C[n+]3ccccc3)CS[C@H]12)c1csc(N)n1)C(=O)O
Description: (§1) Ratio of Kcat to Km for Pseudomonas maltophilia ULA-511 beta-Lactamase L-1. The note with it: Stenotrophomonas maltophilia.

Substrate in data set [2]: CCN1CCN(C(=O)N[C@@H](C(=O)N[C@@H]2C(=O)N3[C@@H]2SC(C)(C)[C@@H]3C(=O)O)c2ccccc2)C(=O)C1=O
The description is as §1. The note with it: Stenotrophomonas maltophilia.

Substrate in data set [3]: CO/N=C(\C(=O)N[C@@H]1C(=O)N2C(C(=O)O)=C(COC(N)=O)CS[C@H]12)c1ccco1
Described as §1. The settings on record: Stenotrophomonas maltophilia.

Substrate in data set [4]: CO[C@@]1(NC(=O)Cc2cccs2)C(=O)N2C(C(=O)O)=C(COC(N)=O)CS[C@@H]21
The description is as §1. The note with it: Stenotrophomonas maltophilia.

Substrate in data set [5]: CO/N=C(\C(=O)N[C@@H]1C(=O)N2C(C(=O)[O-])=C(C[N+]3(C)CCCC3)CS[C@H]12)c1csc(N)n1
The description is as §1. The settings on record: Stenotrophomonas maltophilia.

Substrate in data set [6]: CO/N=C(\C(=O)N[C@@H]1C(=O)N2C(C(=O)O)=C(COC(C)=O)CS[C@H]12)c1csc(N)n1
The description is as §1. The note with it: Stenotrophomonas maltophilia.

Substrate in data set [7]: CC1(C)S[C@@H]2[C@H](NC(=O)Cc3ccccc3)C(=O)N2[C@H]1C(=O)O
The description is as §1. The note with it: Stenotrophomonas maltophilia.

Substrate in data set [8]: CO[C@@]1(NC(=O)C(C(=O)O)c2ccsc2)C(=O)N2[C@@H](C(=O)O)C(C)(C)S[C@@H]21
Described as §1. The note with it: Stenotrophomonas maltophilia.

Substrate in data set [9]: C[C@@H](O)[C@H]1C(=O)N2C(C(=O)O)=C(SCCNC=N)C[C@H]12
The description is as §1. The note with it: Stenotrophomonas maltophilia.

Substrate in data set [10]: CC1(C)S[C@@H]2[C@H](NC(=O)[C@H](C(=O)O)c3ccsc3)C(=O)N2[C@H]1C(=O)O
The description is as §1. The note with it: Stenotrophomonas maltophilia.

Substrate in data set [11]: CC1(C)S[C@@H]2[C@H](NC(=O)[C@H](N)c3ccccc3)C(=O)N2[C@H]1C(=O)O
The data set is described as §1. The settings on record: Stenotrophomonas maltophilia.

Substrate in data set [12]: CC(C)(O/N=C(\C(=O)N[C@@H]1C(=O)N2C(C(=O)[O-])=C(C[n+]3ccccc3)CS[C@H]12)c1csc(N)n1)C(=O)O
Briefly: (§2) Ratio of Kcat to Km for Janthinobacterium lividum THIN-B.

Substrate in data set [13]: CCN1CCN(C(=O)N[C@@H](C(=O)N[C@@H]2C(=O)N3[C@@H]2SC(C)(C)[C@@H]3C(=O)O)c2ccccc2)C(=O)C1=O
The description is as §2.

Substrate in data set [14]: CO/N=C(\C(=O)N[C@@H]1C(=O)N2C(C(=O)O)=C(COC(N)=O)CS[C@H]12)c1ccco1
The description is as §2.

Substrate in data set [15]: CO/N=C(\C(=O)N[C@@H]1C(=O)N2C(C(=O)[O-])=C(C[N+]3(C)CCCC3)CS[C@H]12)c1csc(N)n1
The description is as §2.

Substrate in data set [16]: CO/N=C(\C(=O)N[C@@H]1C(=O)N2C(C(=O)O)=C(COC(C)=O)CS[C@H]12)c1csc(N)n1
Described as §2.

Substrate in data set [17]: C[C@@H](O)[C@H]1C(=O)N2C(C(=O)O)=C(SCCNC=N)C[C@H]12
The description is as §2.

Substrate in data set [18]: CC1(C)S[C@@H]2[C@H](NC(=O)[C@H](N)c3ccccc3)C(=O)N2[C@H]1C(=O)O
Described as §2.

Substrate in data set [19]: CC(C)(O/N=C(\C(=O)N[C@@H]1C(=O)N2C(C(=O)[O-])=C(C[n+]3ccccc3)CS[C@H]12)c1csc(N)n1)C(=O)O
Briefly: (§3) Ratio of Kcat to Km for Chryseobacterium meningosepticum beta-Lactamase GOB-1. The note with it: Elizabethkingia meningoseptica.

Substrate in data set [20]: CCN1CCN(C(=O)N[C@@H](C(=O)N[C@@H]2C(=O)N3[C@@H]2SC(C)(C)[C@@H]3C(=O)O)c2ccccc2)C(=O)C1=O
The description is as §3. The settings on record: Elizabethkingia meningoseptica.

Substrate in data set [21]: CO/N=C(\C(=O)N[C@@H]1C(=O)N2C(C(=O)O)=C(COC(N)=O)CS[C@H]12)c1ccco1
The description is as §3. The note with it: Elizabethkingia meningoseptica.

Substrate in data set [22]: CC(=O)OCC1=C(C(=O)O)N2C(=O)[C@@H](NC(=O)Cc3cccs3)[C@H]2SC1
Described as §3. The settings on record: Elizabethkingia meningoseptica.

Substrate in data set [23]: CO[C@@]1(NC(=O)Cc2cccs2)C(=O)N2C(C(=O)O)=C(COC(N)=O)CS[C@@H]21
Described as §3. The note with it: Elizabethkingia meningoseptica.

Substrate in data set [24]: CO/N=C(\C(=O)N[C@@H]1C(=O)N2C(C(=O)[O-])=C(C[N+]3(C)CCCC3)CS[C@H]12)c1csc(N)n1
Described as §3. The note with it: Elizabethkingia meningoseptica.

Substrate in data set [25]: CO/N=C(\C(=O)N[C@@H]1C(=O)N2C(C(=O)O)=C(COC(C)=O)CS[C@H]12)c1csc(N)n1
Described as §3. The note with it: Elizabethkingia meningoseptica.

Substrate in data set [26]: CC1(C)S[C@@H]2[C@H](NC(=O)Cc3ccccc3)C(=O)N2[C@H]1C(=O)O
Described as §3. The note with it: Elizabethkingia meningoseptica.

Substrate in data set [27]: C[C@@H](O)[C@H]1C(=O)N2C(C(=O)O)=C(SCCNC=N)C[C@H]12
Described as §3. The settings on record: Elizabethkingia meningoseptica.

Substrate in data set [28]: CC1(C)S[C@@H]2[C@H](NC(=O)[C@H](C(=O)O)c3ccsc3)C(=O)N2[C@H]1C(=O)O
The data set is described as §3. The note with it: Elizabethkingia meningoseptica.

Substrate in data set [29]: CC(C)(O/N=C(\C(=O)N[C@@H]1C(=O)N2C(C(=O)[O-])=C(C[n+]3ccccc3)CS[C@H]12)c1csc(N)n1)C(=O)O
Briefly: (§4) Ratio of Kcat to Km for Caulobacter crescentus beta-Lactamase CAU-1. The settings on record: Caulobacter vibrioides.

Substrate in data set [30]: CCN1CCN(C(=O)N[C@@H](C(=O)N[C@@H]2C(=O)N3[C@@H]2SC(C)(C)[C@@H]3C(=O)O)c2ccccc2)C(=O)C1=O
Described as §4. The note with it: Caulobacter vibrioides.

Substrate in data set [31]: CO/N=C(\C(=O)N[C@@H]1C(=O)N2C(C(=O)O)=C(COC(N)=O)CS[C@H]12)c1ccco1
Described as §4. The settings on record: Caulobacter vibrioides.

Substrate in data set [32]: CC(=O)OCC1=C(C(=O)O)N2C(=O)[C@@H](NC(=O)Cc3cccs3)[C@H]2SC1
Described as §4. The settings on record: Caulobacter vibrioides.

Substrate in data set [33]: CC1(C)S[C@@H]2[C@H](NC(=O)Cc3ccccc3)C(=O)N2[C@H]1C(=O)O
Described as §4. The settings on record: Caulobacter vibrioides.

Substrate in data set [34]: C[C@@H](O)[C@H]1C(=O)N2C(C(=O)O)=C(SCCNC=N)C[C@H]12
The description is as §4. The note with it: Caulobacter vibrioides.

Substrate in data set [35]: CC1(C)S[C@@H]2[C@H](NC(=O)[C@H](N)c3ccccc3)C(=O)N2[C@H]1C(=O)O
The description is as §4. The settings on record: Caulobacter vibrioides.

B1: Beta-lactamase L1 (Stenotrophomonas maltophilia), P52700 (protein)
chain: MRSTLLAFALAVALPAAHTSAAEVPLPQLRAYTVDASWLQPMAPLQIADHTWQIGTEDLTALLVQTPDGAVLLDGGMPQMASHLLDNMKARGVTPRDLRLILLSHAHADHAGPVAELKRRTGAKVAANAESAVLLARGGSDDLHFGDGITYPPANADRIVMDGEVITVGGIVFTAHFMAGHTPGSTAWTWTDTRNGKPVRIAYADSLSAPGYQLQGNPRYPHLIEDYRRSFATVRALPCDVLLTPHPGASNWDYAAGARAGAKALTCKAYADAAEQKFDGQLAKETAGAR
In the case of B1, the kcat/Km was 1.8 ×10⁵ /M/s in data set [1]; 7 ×10⁶ /M/s in [2]; 2.7 ×10⁶ /M/s in data set [3]; 5.5 ×10⁵ /M/s in [4]; 1.69 ×10⁴ /M/s in [5]; 2.6 ×10⁶ /M/s in data set [6]. Also, the kcat/Km in data set [7] was found to be 2.2 ×10⁷ /M/s; in [8] it was 1.2 ×10⁶ /M/s; in data set [9], 7.3 ×10⁵ /M/s; in [10] it was 2.7 ×10⁶ /M/s; in data set [11], 4.4 ×10⁶ /M/s.

B2: THIN-B proetin (Janthinobacterium lividum), Q9AEF9 (protein)
chain: MTLLAKLMLATVATMSAATVQAKTPAPKPDTPVDCDSCKAWNGEVTPFNVFGNTWYVGTAGLSAVLVTSPQGHVLLDGALPQSAPLIIANIAALGFRIEDVKFILNSHAHWDHAGGIAALQAASGATVVASASGALGLQSGTNGKDDPQFQAKPVVHVAKVEKVKVVGEGDAIKLGPLNLTAHMTPGHTPGATTWTWTSCEGQRCLDVVYADSLNPYSSGDFTYTGKGDGPDISASFAASIAKVAALPCDIILSVHPDSTGVLDKAAKRSGEHNPFIDANACRAYAATADAMLTKRLAKERGVALPAAAPAAQHAH
Take B2: the kcat/Km is 1.4 ×10⁵ /M/s in data set [12]; 2 ×10⁵ /M/s in data set [13]; 2.8 ×10⁶ /M/s in [14]; 7.9 ×10³ /M/s in data set [15]; 2 ×10⁶ /M/s in data set [16]; 1.5 ×10⁶ /M/s in data set [17]. Further, the kcat/Km in data set [18] is 3.7 ×10⁵ /M/s.

B3: GOB-1 metallo-beta-lactamase (Elizabethkingia meningoseptica), A4GRB7 (protein)
chain: MRNFATLFFMFICLGLNAQVVKEPENMPKEWNQTYEPFRIAGNLYYVGTYDLASYLIVTDKGNILINTGTAESLPIIKANIQKLGFNYKDIKILLLTQAHYDHTGALQDLKTETGAKFYADKADADVLRTGGKSDYEMGKYGVTFKPVTPDKTLKDQDKITLGNTILTLLHHPGHTKGSCSFIFETKDEKRKYRVLIANMPSVIVDKKFSEVTAYPNIQSDYAYTFKAMKNLDFDLWVASHASQFDLHEKRKEGDPYNPQLFMDKQSYFQNLNDLEKSYLDKIKKDSQDK
As for B3, the kcat/Km in data set [19] is 7.6 ×10⁵ /M/s; in [20], 1.7 ×10⁶ /M/s; in [21] it was 9.8 ×10⁵ /M/s; in [22], 6.7 ×10⁵ /M/s; in [23], 2.5 ×10⁵ /M/s; in [24], 2 ×10⁵ /M/s. The kcat/Km was 8.5 ×10⁵ /M/s in data set [25], 1.9 ×10⁷ /M/s in [26], 6.6 ×10⁵ /M/s in data set [27] and 5.2 ×10⁵ /M/s in data set [28].

B4: Metallo-beta-lactamase (Caulobacter vibrioides), Q8KKG1 (protein)
chain: MKRLILAAAASLLALASAAHADDMPANWTKPTKPYRVVGNIYYVGTEGISSWLITSSEGHVVLDGGPNAETGKLVERNITALGFQLADVKILINTHAHYDHAGGLAQLKADTGAKLWISRDDAPAMAAGHHIGDNIYGPTPMPAAKPDRSFGDQTKLKLGEIAMVAHLTPGHTIGCTSWTTAVVEKGRPLTVTFPCSLSVAGNVLVGNKTHRTIVADYRASFAKLRAIPTDVMLPAHEEQGNLLAKRQKQLRGDPNAFVDPGELARFVDASEAAFNKELARQQAAGPNR
Regarding B4, the kcat/Km in data set [29] turned out to be 2 ×10³ /M/s; in [30], 5.7 ×10⁵ /M/s; in data set [31], 1.4 ×10⁴ /M/s; in data set [32] it was 4.3 ×10⁵ /M/s; in data set [33], 4.5 ×10⁵ /M/s; in data set [34], 2 ×10⁵ /M/s. The kcat/Km in [35] was found to be 5 ×10⁵ /M/s.
